Numbering of substitutions follows the chain as printed. Blank lines part the entries; values can stand above or below the binder they belong to.
Legend:
[1] = biological target: Feline_OSMR_hlgG1_Fc (feline); test: indirect ELISA, fOSMR coated; OD ratio to antibody expression control
[2] = biological target: Feline_OSMR_hlgG1_Fc (feline); test: SPR Biacore
[3] = biological target: Canine_OSMR_hlgG1_Fc (canine); test: SPR Biacore
Canine_OSMR_hlgG1_Fc (canine), sequence (chain, as listed by the source limits assumed, form in doubt): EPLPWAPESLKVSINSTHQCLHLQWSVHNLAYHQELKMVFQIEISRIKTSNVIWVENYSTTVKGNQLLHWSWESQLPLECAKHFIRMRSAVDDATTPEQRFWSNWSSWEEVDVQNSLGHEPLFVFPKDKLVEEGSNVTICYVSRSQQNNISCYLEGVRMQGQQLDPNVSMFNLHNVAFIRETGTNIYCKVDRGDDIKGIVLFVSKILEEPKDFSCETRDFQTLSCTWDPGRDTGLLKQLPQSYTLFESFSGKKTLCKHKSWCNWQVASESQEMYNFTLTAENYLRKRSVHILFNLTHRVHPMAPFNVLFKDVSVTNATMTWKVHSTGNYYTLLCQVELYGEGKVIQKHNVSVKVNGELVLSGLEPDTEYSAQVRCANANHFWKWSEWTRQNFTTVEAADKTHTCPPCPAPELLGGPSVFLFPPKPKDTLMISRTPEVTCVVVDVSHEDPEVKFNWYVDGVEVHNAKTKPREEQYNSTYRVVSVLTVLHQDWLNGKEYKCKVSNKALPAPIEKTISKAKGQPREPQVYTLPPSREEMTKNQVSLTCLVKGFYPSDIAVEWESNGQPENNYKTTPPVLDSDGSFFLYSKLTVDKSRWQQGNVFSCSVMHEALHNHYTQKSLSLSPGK

Feline_OSMR_hlgG1_Fc (feline), sequence (chain, as listed by the source limits assumed, form in doubt): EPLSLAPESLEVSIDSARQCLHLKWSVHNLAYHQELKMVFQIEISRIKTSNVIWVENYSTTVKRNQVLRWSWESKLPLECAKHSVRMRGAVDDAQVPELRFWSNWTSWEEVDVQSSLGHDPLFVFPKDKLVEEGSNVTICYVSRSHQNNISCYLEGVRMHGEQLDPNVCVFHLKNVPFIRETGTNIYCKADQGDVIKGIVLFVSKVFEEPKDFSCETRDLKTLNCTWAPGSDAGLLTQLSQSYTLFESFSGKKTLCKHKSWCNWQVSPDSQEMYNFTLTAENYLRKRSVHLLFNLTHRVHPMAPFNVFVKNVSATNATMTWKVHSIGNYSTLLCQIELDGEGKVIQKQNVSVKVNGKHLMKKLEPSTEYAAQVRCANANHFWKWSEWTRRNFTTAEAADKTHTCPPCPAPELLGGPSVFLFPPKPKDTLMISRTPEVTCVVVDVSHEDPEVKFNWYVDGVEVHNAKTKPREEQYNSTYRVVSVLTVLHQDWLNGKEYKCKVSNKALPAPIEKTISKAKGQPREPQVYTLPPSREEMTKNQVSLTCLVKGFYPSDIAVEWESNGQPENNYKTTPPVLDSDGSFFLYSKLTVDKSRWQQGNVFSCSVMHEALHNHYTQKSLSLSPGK

ELISA ratio [1]: 0.158 OD ratio
Kd [2]: 6.13 nM
koff [2]: 0.0014 s⁻¹
kon [2]: 229000 M⁻¹ s⁻¹
B1: Mu_02D09_VH (SEQ ID NO: 31)_G33A (antibody, V domains shown)
VH: EVQLVESGGGLVKPGGSLTLSCAASGFTFSDYAMHWLRQAPEKGLEWVAYISSGSRAVFFADTVKGRFTISRDNAKNTLFLQMTSLRSDDTAMYYCARDRYDGRGFAYWGQGTLVTVSA
VL: DIVLTQSPATLSVTPGDSVSLSCRASQSISNNLHWYQQTSHESPRLLITYASQSISGIPSRFSGSGSGTDFTLSINSVETEDFGMYFCQQSNSWPLTFGAGTKLELKR

ELISA ratio [1]: 0.001 OD ratio
Kd [2]: 0.736 nM
koff [2]: 0.000483 s⁻¹
kon [2]: 656000 M⁻¹ s⁻¹
B2: Mu_02D09_VH (SEQ ID NO: 31)_S52A (antibody, V domains shown)
VH: B1 VH with A33G, S52A
VL: B1 VL

ELISA ratio [1]: 0.058 OD ratio
Kd [2]: 13.9 nM
koff [2]: 0.00174 s⁻¹
kon [2]: 125000 M⁻¹ s⁻¹
B3: Mu_02D09_VH (SEQ ID NO: 31)_D102A (antibody, V domains shown)
VH: B1 VH with A33G, D102A
VL: B1 VL

ELISA ratio [1]: 0.03 OD ratio
Kd [2]: 8.05 nM
koff [2]: 0.00108 s⁻¹
kon [2]: 134000 M⁻¹ s⁻¹
B4: Mu_02D09_VH (SEQ ID NO: 31)_H35A (antibody, V domains shown)
VH: B1 VH with A33G, H35A
VL: B1 VL

ELISA ratio [1]: 0.009 OD ratio
Kd [2]: 0.00119 nM
koff [2]: 1.2e-07 s⁻¹
kon [2]: 100000 M⁻¹ s⁻¹
B5: Mu_02D09_VH (SEQ ID NO: 31)_Y50A (antibody, V domains shown)
VH: B1 VH with A33G, Y50A
VL: B1 VL

ELISA ratio [1]: 0 OD ratio
Kd [2]: 1.13 nM
koff [2]: 0.000463 s⁻¹
kon [2]: 408000 M⁻¹ s⁻¹
B6: Mu_02D09_VH (SEQ ID NO: 31)_D99A (antibody, V domains shown)
VH: B1 VH with A33G, D99A
VL: B1 VL

ELISA ratio [1]: 0.01 OD ratio
Kd [2]: 0.00211 nM
koff [2]: 2.31e-07 s⁻¹
kon [2]: 109000 M⁻¹ s⁻¹
B7: Mu_02D09_VH (SEQ ID NO: 31)_D62A (antibody, V domains shown)
VH: B1 VH with A33G, D62A
VL: B1 VL

ELISA ratio [1]: 0.32 OD ratio
Kd [2]: 11.5 nM
koff [2]: 0.00194 s⁻¹
kon [2]: 169000 M⁻¹ s⁻¹
B8: Mu_02D09_VH (SEQ ID NO: 31)_Y101A (antibody, V domains shown)
VH: B1 VH with A33G, Y101A
VL: B1 VL

Kd [3]: 18.2 nM
koff [3]: 0.00105 s⁻¹
kon [3]: 57500 M⁻¹ s⁻¹
Kd [2]: 7.73 nM
koff [2]: 0.000979 s⁻¹
kon [2]: 127000 M⁻¹ s⁻¹
B9: FEL_09E09_1.1 (antibody)
heavy: DVQLVESGGDLVKPGGSLRLTCVASGFTYSSYAMSWVRQAPGKGLQWVAYISSGGDYIYYADTVKGRFTISRDNAKNTLYLQMNSLKTEDTATYYCVRDPITGTFAYWGQGTLVTVSSASTTAPSVFPLAPSCGTTSGATVALACLVLGYFPEPVTVSWNSGALTSGVHTFPAVLQASGLYSLSSMVTVPSSRWLSDTFTCNVAHPPSNTKVDKTVRKTDHPPGPKPCDCPKCPPPEAAGAPSIFIFPPKPKDTLSISRTPEVTCLVVDLGPDDSDVQITWFVDNTQVYTAKTSPREEQFNSTYRVVSVLPILHQDWLKGKEFKCKVNSKSLPSPIERTISKAKGQPHEPQVYVLPPAQEELSRNKVSVTCLIKSFHPPDIAVEWEITGQPEPENNYRTTPPQLDSDGTYFVYSKLSVDRSHWQRGNTYTCSVSHEALHSHHTQKSLTQSPGK
light: EIQMTQSPSSLSASPGDRVTITCRASQDINNYLNWYQQKPGKVPKLLIYYTSTLHSGVPSRFSGSGSGTDFTLTISSLEPEDAATYYCQQGNTLPWTFGQGTRSDAQPSVFLFQPSLDELHTGSASIVCILNDFYPKEVNVKWKVDGVVQNKGIQESTTEQNSKDSTYSLSSTLTMSSTEYQSHEKFSCEVTHKSLASTLVKSFQRSECQRE

Kd [3]: 10 nM
koff [3]: 0.000851 s⁻¹
kon [3]: 85000 M⁻¹ s⁻¹
Kd [2]: 2.2 nM
koff [2]: 0.00042 s⁻¹
kon [2]: 191000 M⁻¹ s⁻¹
B10: FEL_10F07_2.1 (antibody)
heavy: B9 heavy with Y29F, I58F, N74D, N84S, V97T, R98G
light: B9 light with N30T, N92H, T93M

Kd [3]: 13.3 nM
koff [3]: 0.000885 s⁻¹
kon [3]: 66500 M⁻¹ s⁻¹
Kd [2]: 4.75 nM
koff [2]: 0.00061 s⁻¹
kon [2]: 128000 M⁻¹ s⁻¹
B11: FEL_10F07_1.2 (antibody)
heavy: B9 heavy with I58F
light: DITMTQSPGSLAGSPGQQVTMNCRASQDITNYLNWYQQKPGQHPKLLIYYTSTLHSGVPDRFSGSGSGTDFTLTISNLQAEDVASYYCQQGHMLPWTFGQGTRSDAQPSVFLFQPSLDELHTGSASIVCILNDFYPKEVNVKWKVDGVVQNKGIQESTTEQNSKDSTYSLSSTLTMSSTEYQSHEKFSCEVTHKSLASTLVKSFQRSECQRE

Kd [3]: 31 nM
koff [3]: 0.000327 s⁻¹
kon [3]: 10500 M⁻¹ s⁻¹
Kd [2]: 0.435 nM
koff [2]: 1.95e-05 s⁻¹
kon [2]: 44700 M⁻¹ s⁻¹
B12: FEL_19F07_1.2 (antibody)
heavy: DVQLVESGGDLVKPGGSLRLTCVASGFTYSDYYMAWVRQAPGKGLQWVANINYDGSSTYYLDSLKSRFTISRDNAKNTLYLQMNSLKTEDTATYYCVRGLTWDFDVWGQGTLVTVSSASTTAPSVFPLAPSCGTTSGATVALACLVLGYFPEPVTVSWNSGALTSGVHTFPAVLQASGLYSLSSMVTVPSSRWLSDTFTCNVAHPPSNTKVDKTVRKTDHPPGPKPCDCPKCPPPEAAGAPSIFIFPPKPKDTLSISRTPEVTCLVVDLGPDDSDVQITWFVDNTQVYTAKTSPREEQFNSTYRVVSVLPILHQDWLKGKEFKCKVNSKSLPSPIERTISKAKGQPHEPQVYVLPPAQEELSRNKVSVTCLIKSFHPPDIAVEWEITGQPEPENNYRTTPPQLDSDGTYFVYSKLSVDRSHWQRGNTYTCSVSHEALHSHHTQKSLTQSPGK
light: DITMTQSPGSLAGSPGQQVTMNCKASQDVDTAVAWYQQKPGQHPKLLIYLASTRHTGVPDRFSGSGSGTDFTLTISNLQAEDVASYYCQQYSRFPLTFGQGTRSDAQPSVFLFQPSLDELHTGSASIVCILNDFYPKEVNVKWKVDGVVQNKGIQESTTEQNSKDSTYSLSSTLTMSSTEYQSHEKFSCEVTHKSLASTLVKSFQRSECQRE

Kd [3]: 4.4 nM
koff [3]: 0.000215 s⁻¹
kon [3]: 48800 M⁻¹ s⁻¹
Kd [2]: 0.00332 nM
koff [2]: 5.62e-07 s⁻¹
kon [2]: 169000 M⁻¹ s⁻¹
B13: FEL_19F07_2.2 (antibody)
heavy: B12 heavy with D10N, Y29F, V97A
light: B12 light

ELISA ratio [1]: 0.277 OD ratio
B14: Mu_19F07_VH (SEQ ID NO: 47)_S56A (antibody, V domains shown)
VH: EVKLVESEGGLVQPGSSMKLSCTASGFTFSDYYMAWVRQVPEKGLEWVANINYDGASTYYLDSLKSRFIISRDNAKNILYLQMSSLKSEDTATYYCARGLTWDFDVWGTGTTVTVSS
VL: DIVMTQSHKFMSPSVGDRVSITCKASQDVDTAVAWYQQKPGQSPKLLIYLASTRHTGVPDRFTGSGSGTDFTLTISNVQSEDLADYFCQQYSRFPLTFGAGTKLELKR

ELISA ratio [1]: 0.479 OD ratio
B15: Mu_19F07_VH (SEQ ID NO: 47)_Y60A (antibody, V domains shown)
VH: B14 VH with A56S, Y60A
VL: B14 VL

ELISA ratio [1]: 0.057 OD ratio
B16: Mu_19F07_VH (SEQ ID NO: 47)_W102A (antibody, V domains shown)
VH: B14 VH with A56S, W102A
VL: B14 VL

ELISA ratio [1]: 0.011 OD ratio
B17: Mu_09E09_VH (SEQ ID NO: 35)_Y59A (antibody, V domains shown)
VH: DVKLVESGEGLVKPGGSLKLSCAASGFTFSSYAMSWVRQTPEKRLEWVAYISSGGDYIAYADTVKGRFTISRDNARNTLYLQMSSLKSEDTAMYYCTRDPITGTFAYWGQGTLVTVSA
VL: DLQMTQTTSSLSASLGDRVTISCRASQDINNYLNWYQQKPDGTVKLLIYYTSTLHSGVPSRFSGSGSGTDYSLTISNLEQEDIATYFCQQGNTLPWTFGGGTKLEIKR

ELISA ratio [1]: 0.015 OD ratio
B18: Mu_09E09_VL (SEQ ID NO: 37)_N92A (antibody, V domains shown)
VH: B17 VH with A59Y
VL: B17 VL with N92A

ELISA ratio [1]: 0 OD ratio
B19: Mu_09E09_VL (SEQ ID NO: 37)_Y50A (antibody, V domains shown)
VH: B17 VH with A59Y
VL: B17 VL with Y50A

ELISA ratio [1]: 0.183 OD ratio
B20: Mu_09E09_VL (SEQ ID NO: 37)_Q90A (antibody, V domains shown)
VH: B17 VH with A59Y
VL: B17 VL with Q90A

ELISA ratio [1]: 0 OD ratio
B21: Mu_09E09_VL (SEQ ID NO: 37)_W96A (antibody, V domains shown)
VH: B17 VH with A59Y
VL: B17 VL with W96A

ELISA ratio [1]: 0 OD ratio
B22: Mu_09E09_VH (SEQ ID NO: 35)_I101A (antibody, V domains shown)
VH: B17 VH with A59Y, I101A
VL: B17 VL

Kd [3]: 37.7 nM
koff [3]: 0.00108 s⁻¹
kon [3]: 28600 M⁻¹ s⁻¹
Kd [2]: 11 nM
koff [2]: 0.00184 s⁻¹
kon [2]: 167000 M⁻¹ s⁻¹
B23: CAN_09E09_1.2 (antibody)
heavy: EVQLVESGGDLVKPGGSLRLSCVASGFTFSSYAMSWVRQAPGKGLQWVAYISSGGDYIYYADTVKGRFTISRDNAKNTLYLQMNSLRAEDTAMYYCVRDPITGTFAYWGQGTLVTVSSASTTAPSVFPLAPSCGSTSGSTVALACLVSGYFPEPVTVSWNSGSLTSGVHTFPSVLQSSGLYSLSSMVTVPSSRWPSETFTCNVAHPASKTKVDKPVPKRENGRVPRPPDCPKCPAPEMLGGPSVFIFPPKPKDTLLIARTPEVTCVVVDLDPEDPEVQISWFVDGKQMQTAKTQPREEQFNGTYRVVSVLPIGHQDWLKGKQFTCKVNNKALPSPIERTISKARGQAHQPSVYVLPPSREELSKNTVSLTCLIKDFFPPDIDVEWQSNGQQEPESKYRTTPPQLDEDGSYFLYSKLSVDKSRWQRGDTFICAVMHEALHNHYTQESLSHSPGK
light: DIVLTQPTSVSGSLGQRVTISCRASQDINNYLNWYQQLPGKAPKLLVYYTSTLHSGVPDRFSGSNSGSSATLTITGLQAEDEADYYCQQGNTLPWTFGQGTRNDAQPAVYLFQPSPDQLHTGSASVVCLLNSFYPKDINVKWKVDGVIQDTGIQESVTEQDKDSTYSLSSTLTMSSTEYLSHELYSCEITHKSLPSTLIKSFQRSEC
